In one assay the target is HLA-B*15:03. Kind of assay: IEDB peptide-MHC binding, purified MHC/competitive/radioactivity; filed as Kd, often an IC50 or EC50 that approximates it; ≥ and ≤ were set here for values at or beyond the usual limits of such assays. The conditions noted are these: source organism: Vaccinia virus WR.
In assay [1] the target is HLA-B*08:01. Kind of assay: IEDB peptide-MHC binding, purified MHC/direct/fluorescence; filed as Kd, often an IC50 or EC50 that approximates it; ≥ and ≤ were set here for values at or beyond the usual limits of such assays.
The next assay addresses HLA-B*40:01. The assay is described as above.
The target of another assay is HLA-A*69:01. The assay is described as above.
In another assay the target is HLA-B*44:02. The description is as above.
The next assay has as its target HLA-A*31:01. Described as above.
The target in a further assay is HLA-B*58:01. Described as above.
Assay [2] deals with HLA-B*07:02. The description is as above.
Assay [3] deals with HLA-B*35:01. The assay is described as above.
The target in assay [4] is HLA-A*02:01. Described as above.
A further assay deals with HLA-A*01:01. Described as above.
Another assay has as its target HLA-A*03:01. The description is as above.
In a further assay the target is HLA-A*11:01. The assay is described as above.
In assay [5] the target is HLA-B*27:05. The assay is described as above.
In a further assay the target is HLA-A*26:01. The assay is described as above.
The target in assay [6] is HLA-B*15:01. Described as above.
For the next assay, the target named is HLA-A*24:03. The description is as above.
Assay [7] deals with HLA-A*30:01. The assay is described as above. The conditions noted are these: source organism: Salmonella enterica subsp. enterica serovar Typhi.
Assay [8] deals with HLA-B*27:05. Kind of assay: IEDB peptide-MHC binding, purified MHC/competitive/fluorescence; filed as Kd, often an IC50 or EC50 that approximates it; ≥ and ≤ were set here for values at or beyond the usual limits of such assays.
The next assay has as its target HLA-C*06:02. Kind of assay: IEDB peptide-MHC binding, purified MHC/direct/fluorescence; filed as Kd, often an IC50 or EC50 that approximates it; ≥ and ≤ were set here for values at or beyond the usual limits of such assays. The conditions noted are these: source organism: Mus musculus.
Assay [9] concerns the target HLA-A*02:01. Kind of assay: IEDB peptide-MHC binding, purified MHC/competitive/fluorescence; filed as Kd, often an IC50 or EC50 that approximates it; ≥ and ≤ were set here for values at or beyond the usual limits of such assays. The following applies: source organism: Acinetobacter baylyi.
Another assay deals with HLA-A*02:19. The assay is described as above. The conditions noted are these: source organism: Acinetobacter baylyi.
For another assay, the target named is HLA-C*05:01. Kind of assay: IEDB peptide-MHC binding, purified MHC/direct/fluorescence; filed as Kd, often an IC50 or EC50 that approximates it; ≥ and ≤ were set here for values at or beyond the usual limits of such assays.
Assay [10] addresses HLA-B*07:02. The assay can be described thus: IEDB peptide-MHC binding, purified MHC/competitive/fluorescence; filed as Kd, often an IC50 or EC50 that approximates it; ≥ and ≤ were set here for values at or beyond the usual limits of such assays.
In a further assay the target is HLA-B*83:01. The description is as above. The following applies: source organism: Yersinia pestis Nepal516.
Another assay has as its target HLA-B*15:42. Described as above. The conditions noted are these: source organism: Yersinia pestis Nepal516.
Assay [11] concerns the target HLA-B*35:01. The assay is described as above. The conditions noted are these: source organism: Yersinia pestis Nepal516.
The target of another assay is HLA-B*51:01. The description is as above. The conditions noted are these: source organism: Yersinia pestis Nepal516.
Another assay concerns the target HLA-B*45:06. Described as above. The conditions noted are these: source organism: Yersinia pestis Nepal516.
A further assay addresses HLA-A*32:01. The assay can be described thus: IEDB peptide-MHC binding, purified MHC/competitive/radioactivity; filed as Kd, often an IC50 or EC50 that approximates it; ≥ and ≤ were set here for values at or beyond the usual limits of such assays. The following applies: source organism: Vaccinia virus WR.
Assay [12] concerns the target HLA-B*15:01. The description is as above. The following applies: source organism: Vaccinia virus WR.
Assay [13] concerns the target HLA-B*08:01. Described as above. The conditions noted are these: source organism: Vaccinia virus WR.
Assay [14] concerns the target HLA-A*30:01. Described as above. The conditions noted are these: source organism: Vaccinia virus WR.
[15] abbreviates: source organism: Vibrio parahaemolyticus.
[16] abbreviates: source organism: Salmonella enterica.
The mark [17] stands for this setting: source organism: Salmonella enterica subsp. enterica serovar Typhi.
[18] abbreviates: source organism: Vibrio vulnificus.
[19] abbreviates: source organism: Giardia lamblia ATCC 50803.
Setting [20] is: source organism: Brucella melitensis.
Where [21] appears, read: source organism: Brucella abortus 2308.

Kd data for 21 sequences are collected here from the Immune Epitope Database (IEDB).

pKd: −log10 of the molar value.

A word on the pKd: it is the Kd on a negative log10 scale, so that one unit is a factor of ten.

FAAVEGIFF: the pKd with HLA-B*15:03 was 6.51.
As to YREAGIPVL, the pKd in the assay with HLA-B*08:01 [1] (setting [15]), with HLA-B*40:01 (setting [15]), with HLA-A*69:01 (setting [15]), with HLA-B*44:02 (setting [15]), with HLA-A*31:01 (setting [15]) and in the assay with HLA-B*58:01 (setting [15]) was not above 4.70 each time. Moreover, the pKd with HLA-B*07:02 [2] (setting [15]) is not above 4.70; in the assay with HLA-B*35:01 [3] (setting [15]), 6.00; with HLA-A*02:01 [4] (setting [15]), not above 4.70; in the assay with HLA-A*01:01 (setting [15]), not above 4.70; with HLA-A*03:01 (setting [15]), not above 4.70; in the assay with HLA-A*11:01 (setting [15]), not above 4.70. Besides, the pKd with HLA-B*27:05 [5] (setting [15]) is 6.18; in the assay with HLA-A*26:01 (setting [15]), not above 4.70; in the assay with HLA-B*15:01 [6] (setting [15]), not above 4.70.
Take EHFYWGSVF: the pKd with HLA-B*08:01 [1] (setting [16]) was not above 4.70; with HLA-A*24:03 (setting [17]), 6.50; with HLA-B*40:01 (setting [16]) it was not above 4.70; in the assay with HLA-A*69:01 (setting [16]), not above 4.70; with HLA-A*31:01 (setting [16]), not above 4.70; with HLA-B*58:01 (setting [16]) it was not above 4.70. The pKd with HLA-B*35:01 [3] (setting [17]) was 6.37; in the assay with HLA-A*02:01 [4] (setting [16]), not above 4.70; in the assay with HLA-A*30:01 [7], 4.72; with HLA-A*01:01 (setting [16]), not above 4.70; with HLA-A*03:01 (setting [16]), not above 4.70; in the assay with HLA-A*11:01 (setting [17]) it was 5.10. In addition, the pKd with HLA-B*27:05 [5] (setting [16]) was not above 4.70; with HLA-A*26:01 (setting [16]), not above 4.70; with HLA-B*15:01 [6] (setting [17]) it was 5.72.
Sequence YRLFKHGLK had a pKd with HLA-B*27:05 [8] (source organism: Influenza A virus (A/Memphis/1/1978(H1N1))) of 6.66.
As to EEVWRDPYL, the pKd with HLA-B*08:01 [1] (setting [18]) was not above 4.70; with HLA-A*69:01 (setting [18]) it was not above 4.70; in the assay with HLA-A*31:01 (setting [18]), not above 4.70; with HLA-B*58:01 (setting [18]), not above 4.70; with HLA-B*07:02 [2] (setting [18]), not above 4.70; with HLA-B*35:01 [3] (setting [18]), 7.62. The pKd with HLA-A*02:01 [4] (setting [18]), with HLA-A*01:01 (setting [18]), in the assay with HLA-A*03:01 (setting [18]), in the assay with HLA-A*11:01 (setting [18]), with HLA-B*27:05 [5] (setting [18]) and with HLA-A*26:01 (setting [18]) was not above 4.70 each time. In addition, the pKd with HLA-B*15:01 [6] (setting [18]) is not above 4.70.
Take YQYGDNLIL: the pKd with HLA-B*08:01 [1] (setting [19]) is not above 4.70; with HLA-B*40:01 (setting [19]), 7.11; with HLA-A*69:01 (setting [19]), not above 4.70; with HLA-B*44:02 (setting [19]) it was not above 4.70; with HLA-A*31:01 (setting [19]), not above 4.70; in the assay with HLA-B*58:01 (setting [19]), not above 4.70. Also, the pKd with HLA-B*07:02 [2] (setting [19]) was not above 4.70; in the assay with HLA-B*35:01 [3] (setting [19]), 6.39; with HLA-A*02:01 [4] (setting [19]), 7.66; with HLA-A*01:01 (setting [19]), not above 4.70; with HLA-A*03:01 (setting [19]), not above 4.70; with HLA-A*11:01 (setting [19]), not above 4.70. For the same sequence, the pKd with HLA-B*27:05 [5] (setting [19]) was 6.37; with HLA-A*26:01 (setting [19]) it was not above 4.70; with HLA-B*15:01 [6] (setting [19]), 7.05.
For the sequence ILVNQYSHM, in the assay with HLA-B*15:03, the pKd was 7.43.
IRHNKDRKV had a pKd with HLA-C*06:02 of 7.59.
Regarding ILAPNPNRF, the pKd with HLA-B*15:03 is 7.58.
Regarding TPPVDRMAV, the pKd in the assay with HLA-B*08:01 [1] (setting [20]) is 5.04; in the assay with HLA-A*24:03 (setting [21]), not above 4.70; in the assay with HLA-B*40:01 (setting [21]), not above 4.70; with HLA-A*69:01 (setting [21]) it was not above 4.70; with HLA-B*44:02 (setting [21]) it was not above 4.70; in the assay with HLA-A*31:01 (setting [21]), not above 4.70. The pKd with HLA-B*58:01 (setting [21]) was not above 4.70; with HLA-B*07:02 [2] (setting [20]) it was 6.54; with HLA-B*35:01 [3] (setting [20]) it was 5.97; with HLA-A*02:01 [4] (setting [21]), not above 4.70; in the assay with HLA-A*01:01 (setting [21]), not above 4.70; in the assay with HLA-A*03:01 (setting [21]), not above 4.70. Moreover, the pKd with HLA-A*11:01 (setting [21]), in the assay with HLA-B*27:05 [5] (setting [21]) and with HLA-A*26:01 (setting [21]) was not above 4.70 each time.
DLMLLSYSL: the results for the pKd with HLA-A*02:01 [9] and with HLA-A*02:19 were 6.80 and 7.85, respectively.
MTIGMANLI had a pKd with HLA-C*05:01 (source organism: Influenza A virus (A/California/04/2009(H1N1))) not above 4.70.
LPACVYGLAV gave a pKd in the assay with HLA-B*07:02 [10] (source organism: Influenza A virus (A/parakeet/Narita/92A/98(H9N2))) of 7.40.
As for MPAIFFSIV, the pKd was 6.19 with HLA-B*83:01; 7.08 with HLA-B*07:02 [10] (source organism: Yersinia pestis Nepal516); not above 5.30 in the assay with HLA-B*15:42; 8.92 with HLA-B*35:01 [11]; 5.88 with HLA-B*51:01; not above 5.30 with HLA-B*45:06.
For AKTSTLIFF, the pKd with HLA-B*15:03 was 8.81.
As for YQNHGFVSF, the pKd with HLA-B*15:03 is 8.61; with HLA-A*32:01, 6.45; with HLA-B*15:01 [12], 9.76.
In turn, VADEIAFGL gave a pKd with HLA-C*05:01 (source organism: Escherichia coli E22) not below 9.00.
Regarding ALVITINYF, the pKd with HLA-B*15:03 was 6.18.
The sequence GRVTVSTKR showed a pKd in the assay with HLA-B*27:05 [8] (source organism: Influenza A virus) of 6.26.
TSNWTGNYF: the pKd was 4.81 in the assay with HLA-B*08:01 [13]; 6.05 in the assay with HLA-B*15:03; 5.64 with HLA-A*30:01 [14]; 4.94 with HLA-A*32:01; 5.11 with HLA-B*15:01 [12].
For KIYNVTNPF, the pKd with HLA-B*15:03 was 8.12; in the assay with HLA-A*32:01, 8.37; with HLA-B*15:01 [12], 8.57.
